Non-standard residues stand in square brackets, D forms with d. Primed or numbered codes have the meaning given here. Cha = N[C@@H](CC1CCCCC1)C(=O)O; IRDye800CW′ = not defined here; AEEA = NCCOCCOCC(=O)O

Test in series [1]: not given
This is another data set of the same source.

Test in series [2]: not given
This is another data set of the same source.

Test in series [3]: not given
The source holds these as a separate data set.

In the next series the test system is orthotopic PDX GBM. The series is classed as in vivo, nude mice. Particulars: IRDye800CW-AE344 6 nmol i.v. 3 h before surgery; 5-ALA 0.25 mg/g oral 4-5 h before; NIR surgery followed 5-ALA surgery; 2 animals each.
The test system of the next series is glioma. The conditions noted are these: cited from earlier work. From the text: Gliolan®, the brand name of 5-ALA, was approved for clinical use for GBM resection in Europe in 2007 and by the FDA in 2017. After oral administration, it is metabolized inside the tumor cells into protoporphyrin IX that is fluorescent with an emission peak at 635 nm. […] Further, the frequency of the most common early severe adverse events (hemiparesis, aphasia, convulsions, and epidural hematoma) was 11 of 139 pati ... || GBM as a high-grade glioma is characterized by alterations of the normal brain vasculature resulting in a disrupted leaky BBB [47] manifested on MRI with tumor contrast-enhancement. However, the highly invasive nature of GBM causes single cell invasion into otherwise healthy tissue and proliferation of cells in areas outside of the disrupted BBB region, usually in areas not showing contrast-enhancement on MRI [48]. In contrast, the vasculature and BBB function in low-grade gliomas remains virtually unaltered and intact with normal function. As a consequence, the BBB in both high-grade and ...

A short description of series [4]: Ex vivo plasma stability, murine plasma. Type of series: in vitro ADME. Particulars: mouse, 37 °C in dark, 2.4 nmol in 1,600 ul plasma, acetonitrile precipitation, HPLC fluorescence detection ex 774/em 798 nm, normalized to 0 h, read-out: intact probe (normalized AUC on HPLC). How it is done: (§1) For plasma stability 1,600 ul human and murine plasma were separately incubated with 2.4 nmol IRDye800CW-AE344 in 10 ul PBS at 37 °C in dark. 200 ul samples were collected at 0, 0.5, 1, 2, 3, 6, 12 and 24 h. Plasma proteins were precipitated by addition of 200 ul acetonitrile and the samples were centrifuged at 10,000 G for 10 min. The supernatant was collected for analysis. The supernatant from time zero from both the human and mouse serum was analyzed to establish the retention time of the intact IRDye800CW-AE344 on HPLC-MS on a RSLC Dionex Ultimate 3000 (Thermo) instrument coupled to a Bruker QTOF Impact HD II. The column was an Aeris widepore 3.6 µm C4 column (150 × 4.6 mm, Phenomenex) and the solvent system was solvent A: water containing 0.1% Formic acid; solvent B: acetonitrile containing 0.1% formic acid. Method: 0-1 min 5% solvent B, 1-18min 5%-50% solvent B with a flowrate of 1 mL/min. […] All samples were then run using the settings above and the AUC at the 14 min peak was used to calculate the degradation with 0 h for both murine and human plasma as the reference.

The nature of series [5]: Ex vivo plasma stability, human plasma. Type of series: in vitro ADME. The conditions noted are these: 37 °C in dark, 2.4 nmol in 1,600 ul plasma, acetonitrile precipitation, HPLC fluorescence detection ex 774/em 798 nm, normalized to 0 h, read-out: intact probe (normalized AUC on HPLC). As for the experimental part:
as §1

The nature of series [6]: Biodistribution by organ fluorescence imaging. The series is classed as in vivo, nude mice. The conditions noted are these: 3 nmol, 1 h post injection. As for the experimental part: Biodistribution was assessed in animals (n=2) receiving 3 nmol IRDye800CW-AE344 and was euthanized after 1 h for organ dissection and imaging (exposure time: 333 ms). Due to renal excretion, the fluorescence signals in the kidneys were out of scale compared to all the other organs.

In another series the test system is liver and kidneys. Put plainly: Acute toxicity, liver and kidney histology. The conditions noted are these: 24 h post injection of 12 nmol, 5 animals. Type of series: in vivo, nude mice. How it is done: Acute toxicity was evaluated on the liver and kidneys from 5 animals 24 h post injection of 12 nmol IRDye800CW-AE344.
Liver and kidney tissue was formalin fixed and paraffin embedded. Sections of 2-4 um thick were cut and a routine staining panel applied including: H&E, modified sirius, PAS and Masson trichome for both and additional PAS with silver for kidneys and PAS with diastase, iron, reticulin artisan and oxidized orcein for the livers. Livers were immunohistochemically stained, immunohistochemical evaluation on 3 µm thick sections was done using the CK7 antibody from Dako/Agilent, GA619 (clone OV-TL12/30) following the manufacturer's instructions. The staining took place on the Omnis from Agilent utilizing the EnVision Flex+ detection kit (GV800). The primary antibody was diluted using Antibody Diluent (Dako DM830) and were incubated for 20 min. The sections were counterstained with hematoxylin.

Series [7] has as its system 3D blood-brain barrier (BBB) spheroids. Put plainly: Uptake into 3D blood-brain barrier spheroids. The series is classed as in vitro ADME, human. The conditions noted are these: 25 µM, overnight incubation 37 °C/5% CO2, confocal, slice 97 µm inside spheroid, three independent experiments; p = 0.0229.
Description: All cell lines were incubated at 37 °C/5% CO2.
Blood-brain-barrier spheroid assembly and uptake assays: Blood-brain barrier (BBB) spheroids were assembled as previously described [54]. Briefly, 50 µL of 1% agarose (w/v) in Milli-Q water is added to each well of low-binding 96 well plates (Thermo Fisher Scientific) and allowed to cool prior to the addition of cells. Confluent astrocytes, pericytes and hCMEC/D3 were lifted with 0.025% trypsin and resuspended in BBB-working media (Vasculife-Mv with VEGF omitted and 2% normal human serum). 1x10^3 of each cell type is added sequentially to give a total volume of 100 µL per well. BBB-working media was added to each well to a final volume of 200 µL per well. Astrocytes were used between passage 2 and 4, pericytes between passage 4 and 6, and hCMEC/D3 between passages 29 and 30. […]
The following day, spheroids (10 per treatment condition) were pooled by group into low-binding Eppendorf tubes (1.5 mL, Thermo Fisher Scientific) using 0.1% Triton X-100 treated pipette tips and washed 3 times with sterile PBS. […] The extent of uptake into the spheroids was determined by capturing Z-stacks of each spheroid and measuring the integrated density of a region of interest 50µm from the outer boundary of the spheroid using a slice that corresponds to 97µm inside the spheroid [54]. […]
The test system of a further series is uPAR-expressing tumors. The conditions noted are these: cited from earlier work; for time of maximal TBR: previous probes. How it is done:
Compared to our previous probes, ICG-2Glu-AE105 and CH1055-4Glu-AE105, we improved several features. Importantly, the route of excretion changed from liver to kidneys leading to improved pharmacokinetics with faster excretion. Maximal TBR decreased from 15 h and 96 h of ICG-Glu-Glu-AE105 and CH1055-4Glu-AE105, respectively to 3 h with the current new probe.

The target of series [8] is T1, urokinase-type Plasminogen Activator Receptor (uPAR) (UniProt Q03405 23-305). Put plainly: SPR; competition in solution, Biacore 3000: pro-uPA S356A immobilised on a CM5 chip (>5000 RU, mass transport limited); 2 nM uPAR incubated with a 3-fold dilution series of peptide (0.076 nM to 1.5 uM), 300 sec, 20 °C, 50 uL/min; 10 mM HEPES, 150 mM NaCl, 3 mM EDTA, 0.05% P20, pH 7.4. The conditions noted are these: both partners purified. For orientation: SPR reads the build-up and loss of mass on a sensor chip optically.
T1 sequence (Q03405 23-305): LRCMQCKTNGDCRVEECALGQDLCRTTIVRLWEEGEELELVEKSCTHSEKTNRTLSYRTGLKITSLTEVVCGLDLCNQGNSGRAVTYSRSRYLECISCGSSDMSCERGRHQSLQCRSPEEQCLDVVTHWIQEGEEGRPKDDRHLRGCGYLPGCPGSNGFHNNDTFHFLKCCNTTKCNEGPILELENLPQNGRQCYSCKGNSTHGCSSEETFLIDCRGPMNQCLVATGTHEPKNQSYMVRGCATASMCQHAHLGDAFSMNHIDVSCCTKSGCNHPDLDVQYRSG

Series [9] deals with T1, urokinase-type Plasminogen Activator …. Put plainly: cell-based or functional assay.

Regarding `CC(C)C[C@H](NC(=O)[C@H](Cc1ccc(O)cc1)NC(=O)[C@@H](CCCNC(=N)N)NC(=O)[C@@H](CO)NC(=O)[C@H](Cc1ccccc1)NC(=O)[C@H](CC1CCCCC1)NC(=O)[C@H](CC(=O)O)NC(=O)COCCOCCNC(=O)COCCOCCNC(=O)[C@H](CCC(=O)O)NC(=O)[C@H](CCC(=O)O)NC(=O)CCCCC[N+]1=C(/C=C/C2=C(Oc3ccc(S(=O)(=O)O)cc3)C(=C/C=C3/N(CCCCS(=O)(=O)[O-])c4ccc(S(=O)(=O)O)cc4C3(C)C)/CCC2)C(C)(C)c2cc(S(=O)(=O)O)ccc21)C(=O)N[C@@H](Cc1c[nH]c2ccccc12)C(=O)N[C@@H](CO)C(=O)O`, the Stokes shift was determined as 10 nm. Further, the emission peak λemis,max in series [1] amounted to 794 nm. The same molecule returned an excitation peak λexcit,max in series [2] of 784 nm. Moreover, in series [3], the absorption maximum λabs,max was determined as 777 nm.
With `NCC(=O)CCC(=O)O` [5-ALA], in the series with orthotopic PDX GBM, the “postoperative residual tumor on histology after guided surgery” value is on record as “clearly showed residual tumor”. In addition, the “low-grade gliomas showing visible fluorescence” value in the series with glioma is “approximately 20%”. Moreover, in the series on glioma (hemiparesis, aphasia, convulsions, epidural hematoma, WL group 4 of 131), the “frequency of the most common early severe adverse events” value was 11 of 139. The “rate of complete resection of the tumor” value with glioma (phase III clinical trial, 5-ALA vs WL surgery (36% with WL)) is on record as 65%.
For the molecule `CC(C)C[C@H](NC(=O)[C@H](Cc1ccc(O)cc1)NC(=O)[C@@H](CCCNC(=N)N)NC(=O)[C@@H](CO)NC(=O)[C@H](Cc1ccccc1)NC(=O)[C@H](CC1CCCCC1)NC(=O)[C@H](CC(=O)O)NC(=O)COCCOCCNC(=O)COCCOCCNC(=O)[C@H](CCC(=O)O)NC(=O)[C@H](CCC(=O)O)NC(=O)CCCCC[N+]1=C(/C=C/C2=C(Oc3ccc(S(=O)(=O)O)cc3)C(=C/C=C3/N(CCCCS(=O)(=O)O)c4ccc(S(=O)(=O)O)cc4C3(C)C)/CCC2)C(C)(C)c2cc(S(=O)(=O)[O-])ccc21)C(=O)N[C@@H](Cc1c[nH]c2ccccc12)C(=O)N[C@@H](CO)C(=O)O` [IRDye800CW-AE344], the remaining at 6 h, 1.5 µM in series [4] (6 h) amounted to 73%. Besides, in [4] (12 h), the remaining at 12 h, 1.5 µM came out at 67%. The remaining at 6 h in series [5] stood at 61%. Besides, in [6] (n=2, exposure time 333 ms), the MFI in liver was determined as 88 a.u, the MFI in lungs was found to be 101 a.u, the “MFI in normal brain tissue” value is listed as 19 a.u and the MFI in skin was 99 a.u. Further, the MFI in kidneys in series [6] (n=2, acquired at 40 ms and extrapolated to 333 ms) was 1,236 a.u. Further, in the series with liver and kidneys, the kidney histology result is “normal with preserved glomeruli and tubules without atrophy, inflammation, or fibrosis”; the liver histology result is “normal with lobular configuration without inflammation, fibrosis, cholestasis or deposits”. Besides, in series [7], the “fold change in relative fluorescence units (RFU) compared to untreated spheroids” value turned out to be 5.3 fold.
Regarding “CH1055-Glu-Glu-Glu-Glu-AE105 [CH1055-4Glu-AE105, previous uPAR probe with NIR-II fluorophore CH1055]”, in the series on uPAR-expressing tumors, the “TBR of previous probes” value was 2.7 and the “time of maximal TBR” value was 96 h.
On to “ICG-Glu-Glu-AE105 [previous fluorescently labeled uPAR probe with ICG]”, for which, in the series on uPAR-expressing tumors, the “TBR of previous probes” value is recorded as 3.5 and the “time of maximal TBR” value is 15 h.

B1: AE105 (peptide)
chain: DAFSRYLWS
modifications: 9-mer; residue 2 Cha (cyclohexylalanine), residue 4 D-Ser, residue 5 D-Arg; C-terminal free acid. Sequence not printed: taken from the core of the related antagonist peptide AE147 in 1YWH, with D-Arg
As to B1, the IC50 (usually the concentration that inhibits the measured activity by half) in series [8] is 7.8 nM.

B2: IRDye800CW-AE344 (peptide)
chain: {IRDye800CW′}-EE[AEEA][AEEA]D[Cha]F[dS][dR]YLWS-OH
modifications: also: X3-X4: OEG2 linker between Glu-Glu and AE105
With B2, in [9], the “normalized tumor-to-background ratio (TBR), NIR imaging of cross sectioned brains with orthotopic GBM in mice, 3 nmol IRDye800CW-AE344 (active), 1 h” value amounted to 6.6 and the “normalized tumor-to-background ratio (TBR), NIR imaging of orthotopic GBM in mice, 3 nmol IRDye800CW-AE344 blocked by co-administered AE120 (the dimer version of the AE105), 1 h” value is 4.6. Moreover, in [8], the IC50 was found to be 20 nM.

The values above are taken from article PMC8210614, “IRDye800CW labeled uPAR-targeting peptide for fluorescence-guided glioblastoma surgery: Preclinical studies in orthotopic xenografts” (Theranostics, 2021).
